The results in this text go back to patent US20250135048A1, “Fibroblast activation protein compound or salt with albumin dual-binding function” (National Atomic Research Institute, priority 2023, published 2025).

For data set [1], the system named is HEK-293 human embryonic kidney cancer cells expressing FAP (HEK-293-FAP cells) tumor. The data set is described as follows: nanoSPECT/CT imaging biodistribution in tumor of HEK-293-FAP tumor-bearing mice. Conditions: BALB/c nude mice, nanoSPECT/CT semi-quantification.
Description: (§1) The HEK-293 human embryonic kidney cancer cells expressing FAP (HEK-293-FAP cells) are inoculated with 4×10^6 cells at the forward right flanks of BALB/c nude mice. […] These drugs are prepared to about 100 μL volume in normal saline. The nanoSPECT/CT imaging is performed at 1, 4, and 24 h after the intravenously administrated via tail vein.
(§2) The nanoSPECT/CT imaging is performed at 1, 4, and 24 h after administration to monitor the distribution of radiopharmaceuticals in the animal. The images are semi-quantification by using imaging analysis software. The SPECT count value of reference source is obtained by using imaging analysis software. […] The SPECT count value is obtained from region of image of each target organ, and obtained the activity/volume of each target organ by using the conversion formula.
Data set [2] can be described thus: nanoSPECT/CT imaging biodistribution in blood of heart of HEK-293-FAP tumor-bearing mice. The conditions noted are these: BALB/c nude mice, nanoSPECT/CT semi-quantification.
Description: as §1, §2
Where [3] appears, read: 1 h after intravenous administration via tail vein.
The mark [4] stands for this setting: 4 h after intravenous administration via tail vein.
The mark [5] stands for this setting: 24 h after intravenous administration via tail vein.

Turning to `CN(CCCN1CCN(C(=O)[C@H](COCCNC(=O)CCCc2ccc(I)cc2)NC(=O)[C@H](CCCCSC2CC(=O)N(CCC(=O)N[C@@H](CCCCN)C(=O)N[C@@H](CCCCN)C(=O)N[C@@H](CCCCN)C(=O)N[C@@H](CCCCN)C(=O)N[C@@H](CCCCN)C(=O)N[C@@H](CCCCN)C(=O)N[C@@H](CCCCN)C(=O)N[C@@H](CCCCN)C(=O)O)C2=O)NC(=O)CNC(=O)CN2CCN(CC(=O)O)CCN(CC(=O)O)CCN(CC(=O)O)CC2)CC1)c1ccc2nccc(C(=O)NCC(=O)N3CC(F)(F)C[C@H]3C#N)c2c1` (stereo partly drawn) [Lu-177-INER-FAPI-1.12, metal not drawn], the results for the Tumor biodistribution value in data set [1] (setting [3]), in data set [1] (setting [4]) and in data set [1] (setting [5]) were 4.71 % ID/mL, 5.08 % ID/mL and 4.21 % ID/mL, respectively. Further, the “Blood of heart biodistribution value” was found to be 16.19 % ID/mL in data set [2] (setting [3]), 13.33 % ID/mL in data set [2] (setting [4]) and 5.50 % ID/mL in data set [2] (setting [5]).

Regarding `CN(CCCN1CCN(C(=O)[C@H](COCCNC(=O)CCCc2ccc(I)cc2)NC(=O)[C@H](CCCCSC2CC(=O)N(CCC(=O)N[C@@H](CCCNC(=N)N)C(=O)N[C@@H](CCCNC(=N)N)C(=O)N[C@@H](CCCNC(=N)N)C(=O)N[C@@H](CCCNC(=N)N)C(=O)N[C@@H](CCCNC(=N)N)C(=O)N[C@@H](CCCNC(=N)N)C(=O)N[C@@H](CCCNC(=N)N)C(=O)N[C@@H](CCCNC(=N)N)C(=O)N[C@@H](CCCNC(=N)N)C(=O)N[C@@H](CCCNC(=N)N)C(=O)N[C@@H](CCCNC(=N)N)C(=O)N[C@@H](CCCNC(=N)N)C(=O)O)C2=O)NC(=O)CNC(=O)CN2CCN(CC(=O)O)CCN(CC(=O)O)CCN(CC(=O)O)CC2)CC1)c1ccc2nccc(C(=O)NCC(=O)N3CC(F)(F)C[C@H]3C#N)c2c1` (stereo partly drawn) [Lu-177-INER-FAPI-1.23, metal not drawn], the Tumor biodistribution value is 6.58 % ID/mL in data set [1] (setting [3]), 5.96 % ID/mL in data set [1] (setting [4]) and 3.23 % ID/mL in data set [1] (setting [5]). For the same compound, the entries for the “Blood of heart biodistribution value” in data set [2] (setting [3]), in data set [2] (setting [4]) and in data set [2] (setting [5]) were 10.54 % ID/mL, 8.89 % ID/mL and 3.49 % ID/mL, respectively.

In the case of `CN(CCCN1CCN(C(=O)[C@H](COCCNC(=O)CCCc2ccc(I)cc2)NC(=O)[C@H](CCCCSC2CC(=O)N(CCC(=O)N[C@@H](CCCCN)C(=O)N[C@@H](CCCCN)C(=O)N[C@@H](CCCCN)C(=O)N[C@@H](CCCCN)C(=O)N[C@@H](CCCCN)C(=O)N[C@@H](CCCCN)C(=O)N[C@@H](CCCCN)C(=O)N[C@@H](CCCCN)C(=O)N[C@@H](CCCCN)C(=O)N[C@@H](CCCCN)C(=O)N[C@@H](CCCCN)C(=O)N[C@@H](CCCCN)C(=O)O)C2=O)NC(=O)CNC(=O)CN2CCN(CC(=O)O)CCN(CC(=O)O)CCN(CC(=O)O)CC2)CC1)c1ccc2nccc(C(=O)NCC(=O)N3CC(F)(F)C[C@H]3C#N)c2c1` (stereo partly drawn) [Lu-177-INER-FAPI-1.13, metal not drawn], the figures for the Tumor biodistribution value in data set [1] (setting [3]), in data set [1] (setting [4]) and in data set [1] (setting [5]) were 8.03 % ID/mL, 8.54 % ID/mL and 5.44 % ID/mL, respectively. The figures for the “Blood of heart biodistribution value” in data set [2] (setting [3]), in data set [2] (setting [4]) and in data set [2] (setting [5]) were 15.70 % ID/mL, 12.33 % ID/mL and 5.44 % ID/mL, respectively.
